Experimental data as given in doi:10.1101/2021.03.29.437564 (bioRxiv, 2021).

Molecular target: the molecule itself
Test: direct infusion mass spectrometry

B1: ParD antitoxin (PA0125) from Pseudomonas aeruginosa, wild type (natural protein)
chain: MSTVVSFRADDALVAALDELARATHRDRPYHLRQALAQYLERQQWQVAAIDEGLADANAGRLLEHIEIEKRWGLQ
- stoichiometry N: 2
